The results in this text go back to US5091176A, “Polymer-modified peptide drugs having enhanced biological and pharmacological activities” (W. R. Grace & Co.-Conn., priority 1990, dated 1992).

In data set [1] the target is T1, alkaline phosphatase (Bos taurus, UniProt P19111). The data set can be described thus: Residual enzymatic activity of alkaline phosphatase after polymer modification (Example V, Table I). It counts as biochemical. The conditions noted are these: for alk phos activity dA/dt: alkaline phosphatase reacted 1 hour with prepolymer at the listed NCO:protein NH2 ratio, quenched with TRIS, dialyzed; for alk phos activity % Remaining: relative to control without prepolymer, prepolymer at the listed NCO:protein NH2 ratio. The method, then: A constant amount of protein was treated with increasing amount of prepolymer and the residual activity was determined. For comparison with Prepolymer A (high temperature) prepolymers, two other isocyanate prepolymers were used. One is a 550 dalton mono methoxy polyethylene oxide end capped with IPDI; the second is a diol ([…] P-24) of molecular weight 2200 comprising 80% ethylene oxide and 20% propylene oxide, end capped with IPDI. Thus the 3+functionality of Prepolymer A is compared to mono- and di-functional isocyanate derivatives.
After one hour at ambient temperature the residual isocyanate was quenched by addition of 9 ml of 0.5 M TRIS, pH 9.0. The samples were then dialyzed vs. 0.05 M sodium borate, pH 9.0 at 4° C. using 7000 MWCO dialysis tubing. Samples of each were assayed for enzymatic activity then stored frozen.
Table 1 lists the relative amounts of protein amine and polymer isocyanate reacted, and the residual enzymatic activity remaining.

Data set [2] is described as follows: Circulatory half-life of radioiodinated peptide and conjugate after tail vein injection. The conditions noted are these: mouse, in vivo. Also on record: species or system C57B1/6 mice. The method, then: The conjugate from Example XIII was passed over a disposable Sephadex G25 column (PD10 from Pharmacia, Inc.) to separate free from polymer-bound peptide. Confirmation of the purity of the conjugate was obtained by HPLC. About 45 μg of conjugate (based on peptide) were radiolabeled with 125-iodine using the well known chloramine-T procedure. Free 125-iodine was separated from radiolabeled conjugate using a PD10 column. Of the original 30 μCi of Na^125 I used for the iodination, more than 23 μCi were incorporated into the conjugate.
Portions of the radiolabeled YRGDS-Prepolymer A conjugate from Example XIV were injected into the tail veins of C57B1/6 mice. As a control, YRGDS free peptide was radioiodinated by the procedure described in Example XIV and also injected. At various times blood was withdrawn from the animals and the amount of radioiodine remaining in the circulation determined using a gamma counter. A biphasic clearance curve (α:β) was obtained for both species. […] Thus by coupling the peptide to this polymer its clearance rate from the circulation is markedly extended.

For data set [3], the system named is alkaline phosphatase. The conditions noted are these: alkaline phosphatase 50 ng/well; rabbit antisera, day 35 test bleed; FIG. 1.
Procedure: Antibody titers in the five rabbit sera from Example VI were determined by ELISA based on the following general procedure:
1) antigen is immobilized in 96-well PVC plates,
2) test antiserum is diluted with phosphate-TWEEN-chicken serum (PTCS) and incubated on the plate for 1 hour,
3) the plate is washed and Biotin-Protein A is added for 1 hour,
4) the plate is washed and glucose oxidase-avidin is added for 15 minutes.
5) the plate is washed and substrate (glucose+peroxidase+ABTS) is added. Absorbance at 405 nm is read at intervals on a plate reader.
The target of data set [4] is T1, alkaline phosphatase. Briefly: Residual enzyme activity of alkaline phosphatase-Prepolymer A conjugates, p-nitrophenylphosphate as substrate (Examples IX, X). It counts as biochemical, calf. Also on record: Alkaline Phosphatase from calf intestine, Type I, was obtained from Sigma; purchased Sigma Type I; host or cells: calf intestine (tissue-derived). Particulars: after 1 hour at ambient temperature.
Procedure: Alkaline Phosphatase from calf intestine, Type I, was obtained from Sigma. A 5 mg/ml solution was prepared in 0.01 M Tris, pH 8.0, containing 1mM CaCl2. To 0.2 ml of this enzyme solution was added 0.02 ml of a 50% (w/w) solution of Prepolymer A (low temperature) in acetonitrile. After 1 hour at ambient temperature the solution was assayed for residual enzyme activity and injected into an HPLC to evaluate the molecular size of the conjugate. […] Size analysis was performed by HPLC using a Zorbax GF250 column (DuPont) and a mobile phase consisting of 0.05 M sodium phosphate, pH 7.0, with 0.3 M NaCl at a flow rate of 0.5 ml/min.

With alkaline phosphatase, in data set [1], the “alk phos activity dA/dt” value amounted to 0.1200 and the “alk phos activity % Remaining” value came to 100.0%.

tyr-arg-gly-aspser [YRGDS free peptide]: in data set [2], the “half-life of the initial phase (t178 α)” value turned out to be 30 s, the “label cleared in the initial phase” value is “about 75%” and the “second phase half life (t1/2 β)” value is 2 hours 40 minutes.

B1: A4: alkaline phosphatase coupled to mono-functional IPDI-capped methoxy polyethylene oxide, NCO:NH2 14.9:1 (conjugate, UniProt P19111 20-506, looked up)
Intestinal-type alkaline …: LVPVEEEDPAFWNRQAAQALDVAKKLQPIQTAAKNVILFLGDGMGVPTVTATRILKGQMNGKLGPETPLAMDQFPYVALSKTYNVDRQVPDSAGTATAYLCGVKGNYRTIGVSAAARYNQCKTTRGNEVTSVMNRAKKAGKSVGVVTTTRVQHASPAGAYAHTVNRNWYSDADLPADAQMNGCQDIAAQLVNNMDIDVILGGGRKYMFPVGTPDPEYPDDASVNGVRKRKQNLVQAWQAKHQGAQYVWNRTALLQAADDSSVTHLMGLFEPADMKYNVQQDHTKDPTLQEMTEVALRVVSRNPRGFYLFVEGGRIDHGHHDDKAYMALTEAGMFDNAIAKANELTSELDTLILVTADHSHVFSFGGYTLRGTSIFGLAPSKALDSKSYTSILYGNGPGYALGGGSRPDVNDSTSEDPSYQQQAAVPQASETHGGEDVAVFARGPQAHLVHGVEEETFVAHIMAFAGCVEPYTDCNLPAPTTATSIPD
modifications: coupled to IPDI-capped methoxy PEG
Regarding B1, in data set [1], the “alk phos activity dA/dt” value stood at 0.0313 and the “alk phos activity % Remaining” value stood at 26.1%.

B2: C2: alkaline phosphatase coupled to tri-functional Prepolymer A (high temperature), NCO:NH2 1.3:1 (conjugate, UniProt P19111 20-506, looked up)
Intestinal-type alkaline …: B1 Intestinal-type alkaline …
modifications: coupled to Prepolymer A
Take B2: in data set [1], the “alk phos activity dA/dt” value is reported as 0.0688 and the “alk phos activity % Remaining” value was determined as 57.5%.

B3: B3: alkaline phosphatase coupled to IPDI-capped diol TAKELACK P-24, NCO:NH2 6.8:1 (conjugate, UniProt P19111 20-506, looked up)
Intestinal-type alkaline …: B1 Intestinal-type alkaline …
modifications: coupled to IPDI-capped diol polymer
As to B3, in data set [1], the “alk phos activity dA/dt” value was 0.0389 and the “alk phos activity % Remaining” value came to 32.4%.

B4: B2: alkaline phosphatase coupled to IPDI-capped diol TAKELACK P-24, NCO:NH2 2.7:1 (conjugate, UniProt P19111 20-506, looked up)
Intestinal-type alkaline …: B1 Intestinal-type alkaline …
modifications: coupled to IPDI-capped diol polymer
Regarding B4, in data set [1], the “alk phos activity dA/dt” value was determined as 0.0604 and the “alk phos activity % Remaining” value worked out at 50.3%.

B5: C1: alkaline phosphatase coupled to tri-functional Prepolymer A (high temperature), NCO:NH2 0.7:1 (conjugate, UniProt P19111 20-506, looked up)
Intestinal-type alkaline …: B1 Intestinal-type alkaline …
modifications: coupled to Prepolymer A
For B5, in data set [3], the “binding of the antiserum raised against the antigen to immobilized alkaline phosphatase (immunogenicity)” value was “negligible binding”.

B6: Example IX: calf intestine alkaline phosphatase conjugated with Prepolymer A (low temperature), 1 hour reaction (conjugate, UniProt P19111 20-506, looked up)
Intestinal-type alkaline …: B1 Intestinal-type alkaline …
modifications: conjugated with Prepolymer A
Take B6: the “enzymatic activity remained after the reaction” value in data set [4] is recorded as 54%.
